Experimental findings from patent US20240368286A1 (SHANGHAI JMT BIO TECHNOLOGY, published 2024) are described below.

Residue numbers refer to the chain shown, from its start. Where two headings read alike, the source gives them in different places. Where only a bound is given, the exact number is not on record here.

The EC50 is the concentration needed to bring the measured effect to its halfway point.

The target of assay [1] is T1, Human GFRAL (hGFRAL) on HEK293 reporter cells with human RET (human, UniProt Q6UXV0 19-394).
T1 sequence (looked up): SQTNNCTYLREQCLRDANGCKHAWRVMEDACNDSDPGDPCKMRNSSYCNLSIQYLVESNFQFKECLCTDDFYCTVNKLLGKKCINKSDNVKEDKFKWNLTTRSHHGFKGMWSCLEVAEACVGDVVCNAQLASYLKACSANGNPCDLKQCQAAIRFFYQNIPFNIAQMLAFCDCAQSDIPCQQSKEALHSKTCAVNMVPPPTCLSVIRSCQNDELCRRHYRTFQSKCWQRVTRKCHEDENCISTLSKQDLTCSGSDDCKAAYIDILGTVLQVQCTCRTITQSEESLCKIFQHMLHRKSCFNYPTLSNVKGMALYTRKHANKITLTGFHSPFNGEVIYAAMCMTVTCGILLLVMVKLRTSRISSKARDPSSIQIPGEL
The assay is described as follows: cell-based or functional assay.

In assay [2] the target is T2, Mouse GFRAL (mGFRAL) on HEK293 reporter cells with mouse RET (mouse, UniProt Q6SJE0 20-393).
T2 sequence (looked up): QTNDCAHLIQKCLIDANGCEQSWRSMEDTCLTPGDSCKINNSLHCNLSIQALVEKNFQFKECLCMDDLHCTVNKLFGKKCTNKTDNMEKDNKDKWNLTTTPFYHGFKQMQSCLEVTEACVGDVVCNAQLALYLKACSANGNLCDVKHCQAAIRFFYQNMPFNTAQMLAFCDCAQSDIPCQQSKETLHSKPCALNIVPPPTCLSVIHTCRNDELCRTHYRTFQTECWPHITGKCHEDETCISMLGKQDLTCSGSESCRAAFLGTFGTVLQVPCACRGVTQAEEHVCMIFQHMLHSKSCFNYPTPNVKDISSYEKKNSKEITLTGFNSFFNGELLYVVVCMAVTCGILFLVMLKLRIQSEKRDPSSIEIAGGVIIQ
The assay is described as follows: cell-based or functional assay.

For assay [3], the target named is T3, Human GFRAL-His protein (human, UniProt Q6UXV0 19-351).
T3 construct: also called human GFRAL-His fusion protein; not shown: His tag
T3 sequence (looked up): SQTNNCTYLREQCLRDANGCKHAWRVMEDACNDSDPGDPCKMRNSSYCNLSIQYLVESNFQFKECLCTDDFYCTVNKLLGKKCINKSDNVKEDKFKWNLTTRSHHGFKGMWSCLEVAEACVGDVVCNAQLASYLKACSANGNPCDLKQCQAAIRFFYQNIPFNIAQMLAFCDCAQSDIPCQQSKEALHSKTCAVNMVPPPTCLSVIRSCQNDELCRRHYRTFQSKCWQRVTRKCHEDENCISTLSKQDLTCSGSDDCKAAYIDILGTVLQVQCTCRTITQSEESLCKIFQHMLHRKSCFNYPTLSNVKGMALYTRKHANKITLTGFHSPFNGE
As to the kind of experiment: ELISA, antigen coated on plate, purified antibody titrated, HRP anti-mouse IgG detection. On the procedure: (§1) The ELISA assay had the following protocols. Human GFRAL-His protein, cynomolgus monkey GFRAL-His protein, or mouse GFRAL-Fc protein were coated on 96-well plates, and after blocking the wells with PBS/1% BSA solution, the hybridoma supernatant or purified antibodies were added to the reaction wells. After incubation for 1 hour at room temperature, HRP-labeled anti-mouse IgG (Fab region) antibody was added to the reaction wells to incubate for an additional hour at room temperature. After the substrate and stop solution were added successively, the OD₄₅₀ values were read. The OD₄₅₀ values were used to verify and assess the binding ability of the antibodies to the GFRAL proteins.
On the technique in general: ELISA stands for enzyme-linked immunosorbent assay.

For assay [4], the target named is Cynomolgus monkey GFRAL-His protein (cynomolgus monkey). Described as above. As for the experimental part:
as §1

Assay [5] concerns the target T1, Human GFRAL (hGFRAL) on HEK293 reporter …. As to the kind of experiment: cell-based or functional assay. The source holds these as a separate data set.
Assay [6] deals with T2, Mouse GFRAL (mGFRAL) on HEK293 reporter …. As to the kind of experiment: cell-based or functional assay. The source holds these as a separate data set.

B1: 61G8 (antibody, V domains shown)
VH: QVQLKESGPGLVAPSQSLSITCTVSGFSLTGYGVNWVRQSPGKGLEWLGMIWGDGTTDYNSALKSRLTIRKDNSKSQVFLRMNSLQTDDTARYYCARDPKYNYGYAMDYWGQGTSVTVSS
VL: DIVLTQAPGSLAVSLGQRATISCRASESVDNFGNSFMHWYQQKPGQSPKLLIYRASNLESGIPARFSGSGSRTDFTLTINPVEADDVATYYCQQTNEEPYTFGGGTKLEIE
notes: Murine hybridoma antibody, purified
Consider B1, for which the “IC50 (nM), luciferase reporter gene assay, Human GFRAL/human RET” value (“IC50 (nM) … Human GFRAL/human RET” below) in assay [1] worked out at 11.6 nM. The “IC50 (nM), luciferase reporter gene assay, Mouse GFRAL/mouse RET” value (shortened to “IC50 (nM) … Mouse GFRAL/mouse RET”) in assay [2] is > 694 nM. Also, the EC50 came to 0.07 nM in assay [3] and 0.08 nM in assay [4].

B2: 33B12 (antibody, V domains shown)
VH: QVQLQQPGTELVKPGASVKLSCKASGYTFTRNWMHWLKQRPGQGLEWIGEIDPSDSYTHYNQKFKGKATLTVEMSSSTAYMQLRSLTSEDSAVYYCARVGNYDNGTDRLYAMDYWGQGTSVTVSS
VL: DIVLTQSPASLAVSLGQRATISCRASESVDNFGNTFLHWFRQKPGQPPKLLIYRASNLESGIPARFSGSGSRTDFTLTINPVEADDVATYYCQQNNEDPWTFGGGTKLEIK
notes: as for B1
In the case of B2, the “IC50 (nM) … Human GFRAL/human RET” value in assay [1] was 7.04 nM. The “IC50 (nM) … Mouse GFRAL/mouse RET” value in assay [2] is > 694 nM. In addition, the EC50 in assay [3] came out at 0.06 nM; in assay [4], 0.08 nM.

B3: 96C12 (antibody, V domains shown)
VH: RVQLRESGPGLVAPSQSLSITCTVSGFSLTGYSVNWVRQPPGKGLEWLGMIWGDGSTDYNSALKSRLSISKDNSKSQVFLKMNSLQTDDTARYYCARDRDYRYDGGYIMDSWGQGTSVTVSS
VL: B1 VL with A7S, M37L, S47P, I62V, N80S, T95S, E98D, Y100R, E111R
notes: as for B1
With B3, the “IC50 (nM) … Human GFRAL/human RET” value in assay [1] stood at 6.42 nM. Besides, the “IC50 (nM) … Mouse GFRAL/mouse RET” value in assay [2] was > 694 nM. Moreover, the concentration giving a half-maximal response (EC50) in assay [3] and in assay [4] was 0.03 nM each time.

B4: 82G8 (antibody, V domains shown)
VH: QVQLKESGPGLVAPSQSLSITCTVSGFSLTGHGVNWVRQPPGKGLEWLGMIWGDGYTDYNSALKSRLSISKDNSKSQVFLKMNSLQTDDTATYYCARDTYGRTYDYAMDYWGQGTSVTVSS
VL: B2 VL with T20A, F32Y, T35S, L37M, F40Y, R41Q, N95S, W100R
notes: as for B1
For the molecule B4, the “IC50 (nM) … Human GFRAL/human RET” value in assay [1] worked out at 5.67 nM. The “IC50 (nM) … Mouse GFRAL/mouse RET” value in assay [2] was > 694 nM. The EC50 was 0.03 nM in assay [3] and 0.04 nM in assay [4].

B5: 36D1 (antibody, V domains shown)
VH: B2 VH with L11F, E73D, M74K, R84S, T106K
VL: B2 VL
notes: as for B1
For B5, in assay [1], the “IC50 (nM) … Human GFRAL/human RET” value amounted to 6.89 nM. For the same molecule, the “IC50 (nM) … Mouse GFRAL/mouse RET” value in assay [2] was > 694 nM. Moreover, the EC50 in assay [3] was determined as 0.18 nM; in assay [4], 0.07 nM.

B6: 26D7H5eL5c (antibody, V domains shown)
VH: QVQLVQSGSELKKPGASVKVSCKVSGYTFTDYGMNWVRQAPGQGLEWVGWINTYTGEPTYADDFKDRFVFSLDTSVSTAYLQISSLKAEDTAVYYCARRYGYDAGIDAWGQGTTVTVSS
VL: DIVLTQSPASLAVSPGQRATITCRASESVDSYGNNLMHWYQQKPGQPPKLLIYLASYLESGVPARFSGSGSGTDFTLTINPVEANDTANYYCQQNNESPWTFGGGTKLEIK
Regarding B6, in assay [5], the “IC50 (nM) … Human GFRAL/human RET” value stood at 8.3 nM. Further, the “IC50 (nM) … Mouse GFRAL/mouse RET” value in assay [6] was determined as 0.7 nM.

B7: 26D7H5fL5c (antibody, V domains shown)
VH: B6 VH with V2I, V20I, T74A
VL: B6 VL
B7: the “IC50 (nM) … Human GFRAL/human RET” value in assay [5] came out at 8.9 nM. The “IC50 (nM) … Mouse GFRAL/mouse RET” value in assay [6] stood at 0.4 nM.

B8: 26D7-mVH + mVL (antibody, V domains shown)
VH: QIQLVQSGPELKKPGETVKISCKVSGYTFTDYGMNWVKQTPGKDLKWVGWINTYTGEPTYADDFKDRFAFSLEASASTAYLQINNLKNEDTATYFCARRYGYDAGIDCWGQGTTLTVSS
VL: B6 VL with D1N, A9P, P15L, T22S, G72R, N80D, N85D, T87A, N89T, S98D
For the molecule B8, the “IC50 (nM) … Human GFRAL/human RET” value in assay [5] stood at 8.7 nM. In addition, the “IC50 (nM) … Mouse GFRAL/mouse RET” value in assay [6] stood at 0.7 nM.

B9: 2D4-mVH + mVL (antibody, V domains shown)
VH: EVNLVESGGGLVKPGGPLKLSCAASGFTFSSFVMSWVRQTPEKRLEWVASITSGGTTFYPDSVKGRFTISRDNARNILYLQMSNLRSGDTAMYYCARGPPQFSSLSMDYWGQGTSVTVSS
VL: DIVMTQSQKFMSTSVGDRITITCKASQNVGTAVSWFQQKPGQVPKLLIYSASNRYTGVPDRFTGSGSGTEFTLTISNIQSEDLADYFCQQYSSLFTFGSGTKLEIK
As to B9, in assay [5], the “IC50 (nM) … Human GFRAL/human RET” value was determined as 23.8 nM. The “IC50 (nM) … Mouse GFRAL/mouse RET” value in assay [6] was 1.4 nM.

B10: 26D7H1aL2a (antibody, V domains shown)
VH: QVQLVQSGAEVKKPGASVKVSCKASGYTFTDYGMNWVRQAPGQGLEWMGWINTYTGEPTYADDFKDRVTMTTDTSTSTAYMELRSLRSDDTAVYYCARRYGYDAGIDAWGQGTLVTVSS
VL: EIVLTQSPGTLSLSPGERATLSCRASESVDSYGNNLMHWYQQKPGQAPRLLIYLASYLESGVPDRFSGSGSGTDFTLTISRLEPEDFATYYCQQNNESPWTFGQGTKVEIK
With B10, the “IC50 (nM) … Human GFRAL/human RET” value in assay [5] amounted to 2.6 nM. For the same molecule, in assay [6], the “IC50 (nM) … Mouse GFRAL/mouse RET” value came to 7.7 nM.

B11: 26D7H2aL2a (antibody, V domains shown)
VH: B10 VH with A24V, M48V, V68F, M70F, T72L, Y95F
VL: B10 VL
On to B11, for which the “IC50 (nM) … Human GFRAL/human RET” value in assay [5] stood at 7.6 nM. The “IC50 (nM) … Mouse GFRAL/mouse RET” value in assay [6] came out at 1.6 nM.

B12: 26D7H2dL2a (antibody, V domains shown)
VH: B10 VH with V20I, E46K, M70F, T72L, T74A
VL: B10 VL
With B12, the “IC50 (nM) … Human GFRAL/human RET” value in assay [5] came out at 6.5 nM. Besides, the “IC50 (nM) … Mouse GFRAL/mouse RET” value in assay [6] turned out to be 3 nM.

B13: 26D7H4aL4a (antibody, V domains shown)
VH: QIQLVQSGAEVKKPGASVKISCKVSGYTFTDYGMNWVRQTPGQGLKWVGWINTYTGEPTYADDFKDRFTFTLDASTSTAYLEIRSLRSDDTAVYFCARRYGYDAGIDAWGQGTLLTVSS
VL: B10 VL with L13V, L21I, D64A, G72R, L82V, V108L
Regarding B13, the “IC50 (nM) … Human GFRAL/human RET” value in assay [5] was found to be 5.7 nM. In addition, the “IC50 (nM) … Mouse GFRAL/mouse RET” value in assay [6] turned out to be 0.1 nM.

B14: 90E1 (antibody, V domains shown)
VH: EVQLQQSGPELVKPGASVKMSCKASGYTFTSYVIHWVKQEPGQGLEWIGYINPYNDDINYNEKFKGKATLTSDKSSSTAYMEFSSLTSEDSAVYYCARYDYDWYFDVWGAGTAVTVSS
VL: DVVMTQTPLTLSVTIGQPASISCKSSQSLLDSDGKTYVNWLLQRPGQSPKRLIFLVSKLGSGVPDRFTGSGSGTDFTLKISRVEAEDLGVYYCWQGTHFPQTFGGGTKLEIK
For the molecule B14, the “IC50 (nM) … Human GFRAL/human RET” value in assay [1] amounted to 81.4 nM. Moreover, the “IC50 (nM) … Mouse GFRAL/mouse RET” value in assay [2] came out at 75.5 nM.

B15: 2D4H6aL6b (antibody, V domains shown)
VH: EVQLVESGGGLVKPGGSLRLSCAASGFTFSSFVMSWVRQAPGKGLEWVASITSGGTTFYPESVRGRFTISRDNAKNTLYLQMSSLRAEDTAVYYCARGPPQFSSLSMDYWGQGTTVTVSS
VL: DIQMTQSPSSLSASVGDRVTITCKASQNVGTAVSWFQQKPGKAPKLLIYSASNRYTGVPSRFSGSGSGTDFTLTISSLQPEDFATYYCQQYSSLFTFGGGTKLEIK
Turning to B15, the “IC50 (nM) … Human GFRAL/human RET” value in assay [5] was 24.4 nM. Also, in assay [6], the “IC50 (nM) … Mouse GFRAL/mouse RET” value is 1.4 nM.

B16: 2D4H6cL6c (antibody, V domains shown)
VH: B15 VH with E61D, R64K, K75R, T77I
VL: B15 VL with V19I, S60D
As to B16, the “IC50 (nM) … Human GFRAL/human RET” value in assay [5] turned out to be 22.5 nM. Further, the “IC50 (nM) … Mouse GFRAL/mouse RET” value in assay [6] is 1.3 nM.
